This experiment deals with KIX domain (residues 568-672) of mouse CBP (mouse) (UniProt P45481). Description: NMR titration.

One substance from article PMC2765525 can be followed below.

pKd: −log10 of the molar value.

KIX domain (residues 568-672) of mouse CBP (mouse), sequence (P45481 568-672): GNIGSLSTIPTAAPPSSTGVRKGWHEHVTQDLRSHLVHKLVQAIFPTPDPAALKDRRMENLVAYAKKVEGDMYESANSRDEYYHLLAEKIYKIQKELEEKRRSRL

“p53(14-28) (from UniProt P04637 14-28) (peptide)”: the pKd – broadly, the Kd on a negative log10 scale, so that one unit is a factor of ten – was 3.67.
